According to patent US12410262B2, “Peptide conjugates of cytotoxins as therapeutics” (Cybrexa 2, Inc., priority 2019, dated 2025):

Tests used:
[1] = tested on: HCT116; assay: cells; type: cell-based, human; details: 96 h
Method in brief: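 DLD-1 WT (2500/well), FaDu and HeLa (5000/well) and HCT116 (3000/well) were grown in 10% FBS media and dosed in triplicate 24 h after plating. After 96 h of drug exposure at 37 °C, cells were fixed, Hoechst-stained and counted by imaging; percent growth delay was calculated versus untreated controls.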

[2] = Plasma pharmacokinetics of Compound 11 in a rat model; type: in vivo, Sprague Dawley rats; details: single IV dose 5 mg/kg
Protocol: Male Sprague Dawley rats underwent jugular vein cannulation and insertion of a vascular access button (VAB, Instech Labs Cat #VABR1B/22) at Envigo Labs prior to shipment. Magnetic, aluminum caps (Instech Labs Cat #Cat #VABRC) were used to protect the access port for the jugular catheters allowing the animals to be housed 2 per cage on corn cob bedding for 4-5 days prior to the study. Rats were administered a single intravenous dose of 5 mg/kg Compound 11 prepared in a vehicle of 5% mannitol in citrate buffer. At 1, 2, 4, 8, 24 and 30 hours following compound administration, blood (250 μL) was collected into K2EDTA filled microtainers from fed rats. Plasma was isolated by centrifugation and 100 μL aliquots were transferred to 96-well polypropylene plates on dry ice. Samples were stored at −80° C. until processed for quantification of total peptide by ELISA and released exatecan by LC-MS/MS.
96-Well plates were coated with 100 μL/well of 0.1 μM BSA-labelled peptide prepared in 0.2 M Carbonate-Bicarbonate Buffer, pH 9.4 and incubated overnight at 4° C. […] Luminescence was read from the plate on a BioTek Cytation 5 plate reader.
For quantification of exatecan, a 20 μL plasma sample was added to a polypropylene autosampler vial. […] The samples were centrifuged for 5-10 minutes at 3700 rpm then analyzed via liquid chromatography tandem mass spectrometry (LC-MS/MS).

[3] = Gastric toxicity study in a mouse model; type: in vivo, athymic nude Foxn^nu mice; details: 5.2 μmoles/kg (20 mg/kg) IP once daily for 4 days
Protocol: Six-week-old female athymic nude Foxn^nu mice were obtained from Taconic Labs (Cat #NCRNU-F) and were housed 5 per cage on Alpha-Dri bedding in a disposable caging system (Innovive). Human HCT116 cells derived from colorectal carcinoma were diluted 1:1 in Phenol Red-free Matrigel and subcutaneously implanted into the left flank of each mouse at a density of 2.5×10^6 cells in 100 μL. When xenografts reached a minimal volume of 300 mm^3, mice were administered intraperitoneal doses of vehicle, or 5.2 μmoles/kg of either unconjugated exatecan (equivalent to 2.3 mg/kg exatecan) or Compound 11 (equivalent to 20 mg/kg Compound 11). Compounds were administered once daily for 4 days. At 6 hours after administration of the last dose, mice were euthanized by cervical dislocation and gross necropsy was conducted. Photographs were taken of the stomachs both in situ and ex vivo.

[4] = Glutathione cleavage study; type: in vitro ADME; details: Tris buffer with 10 mM glutathione, Glutathione Challenge (10 mM), 100 μM conjugate, Tris pH 7.5, 37° C.
Method in brief: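 Conjugate stocks at 20 mM in 100% DMSO were diluted in 100 mM Tris, pH 7.5, to a final 100 μM. Freshly made glutathione was added to 10 mM, and samples were incubated at 37° C. for up to 24 hrs. Samples were extracted with phosphoric acid and acetonitrile/0.1% TFA, centrifuged, and analyzed by HPLC, with peak areas compared to the time-0 conjugate peak.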

[5] = Plasma stability studies; type: in vitro ADME; details: rat plasma, 100 μM conjugate, 37° C.
Method in brief: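 Conjugate at 100 μM final in rat plasma (diluted from DMSO stock via 100 mM Tris, pH 7.5), incubated at 37° C for up to 24 h, sampled at 0, 4 and 24 h. Samples acid/acetonitrile-extracted and analysed by HPLC; remaining conjugate expressed as peak area relative to time 0 ×100.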

## CC[C@@]1(O)C(=O)OCc2c1cc1n(c2=O)Cc2c-1nc1cc(F)c(C)c3c1c2[C@@H](NC(=O)O[C@H]1CCCC[C@@H]1SSC[C@H](NC(=O)[C@H](Cc1c[nH]c2ccccc12)NC(=O)[C@H](CC(C)C)NC(=O)[C@H](CC(C)C)NC(=O)[C@H](CC(=O)O)NC(=O)[C@H](CC(C)C)NC(=O)[C@H](CC(C)C)NC(=O)[C@H](CC(C)C)NC(=O)[C@@H](NC(=O)[C@H](CC(=O)O)NC(=O)[C@@H](NC(=O)[C@@H]1CCCN1C(=O)[C@H](Cc1ccccc1)NC(=O)[C@H](CC(C)C)NC(=O)[C@H](CC(C)C)NC(=O)[C@H](CC(=O)O)NC(=O)[C@H](CC(C)C)NC(=O)[C@H](Cc1ccc(O)cc1)NC(=O)[C@H](C)NC(=O)[C@H](CCCNC(=N)N)NC(=O)[C@H](Cc1c[nH]c2ccccc12)NC(=O)[C@@H]1CCCN1C(=O)[C@H](CC(N)=O)NC(=O)[C@H](CCC(N)=O)NC(=O)[C@H](CC(=O)O)NC(=O)[C@H](CC(=O)O)NC(=O)[C@H](C)N)[C@@H](C)O)[C@@H](C)O)C(=O)NCC(=O)O)CC3 [Compound 11]
[1]
  IC50: 22.6 nM
[2]
  stable in plasma: at least 30 h
[2]; after 30 h
  exatecan warhead released in circulation: less than 0.002%
[3]
  gastric toxicity (stomachs in situ and ex vivo): did not display the gastric toxicity
[4]; 4 h
  remaining at 4 h, 100 µM: 50.1%
[4]; 24 h
  remaining at 24 h, 100 µM: 10.2%
[5]; 4 hrs
  remaining at 4 h, 100 µM: 108%
[5]; 24 hrs
  remaining at 24 h, 100 µM: 107%
